According to paper PMC2831308:

System: carboxyltransferase (CT) alpha2beta2, wild-type (Escherichia coli)
Experiment: EMSA

CT alpha transcript, 213 nt upstream of AUG to gene end
Kd: 145 nM
